Source: patent US20140274782A1, “AFFINITY REAGENTS AND METHODS FOR DETECTION, PURIFICATION, AND PROTEOMIC ANALYSIS OF METHYLATED PROTEINS” (The Board of Trustees of the Leland Stanford Junior …, priority 2013, published 2014)

Key:
Assay in all cases: ProtoArray, G9a array SNR minus GST array SNR
[1] = biological target: ACSL4, G9a-methylated (human) (UniProt O60488)
[2] = biological target: BLCAP, G9a-methylated (human) (UniProt P62952)
[3] = biological target: C11orf73, G9a-methylated (human) (UniProt Q53FT3)
[4] = biological target: C12orf60, G9a-methylated (human) (UniProt Q5U649)
[5] = biological target: C12orf62, G9a-methylated (human) (UniProt Q96I36)
Chain of C12orf62, G9a-methylated (human) (Q96I36 whole entry): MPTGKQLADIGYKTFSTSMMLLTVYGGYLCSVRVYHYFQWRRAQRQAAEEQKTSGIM

[6] = biological target: C2orf43, G9a-methylated (human) (UniProt Q9H6V9)
Chain of C2orf43, G9a-methylated (human) (Q9H6V9 whole entry): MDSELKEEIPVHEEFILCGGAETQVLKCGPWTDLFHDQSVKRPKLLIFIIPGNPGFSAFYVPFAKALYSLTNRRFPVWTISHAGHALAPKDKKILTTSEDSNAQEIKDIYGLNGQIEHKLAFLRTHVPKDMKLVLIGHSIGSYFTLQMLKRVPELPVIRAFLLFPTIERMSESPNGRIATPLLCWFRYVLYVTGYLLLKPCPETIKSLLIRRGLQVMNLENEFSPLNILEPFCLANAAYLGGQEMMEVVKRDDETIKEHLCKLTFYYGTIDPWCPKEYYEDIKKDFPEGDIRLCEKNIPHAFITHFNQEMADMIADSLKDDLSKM

[7] = biological target: CAB39L, G9a-methylated (human) (UniProt Q9H9S4)
Chain of CAB39L, G9a-methylated (human) (Q9H9S4 whole entry): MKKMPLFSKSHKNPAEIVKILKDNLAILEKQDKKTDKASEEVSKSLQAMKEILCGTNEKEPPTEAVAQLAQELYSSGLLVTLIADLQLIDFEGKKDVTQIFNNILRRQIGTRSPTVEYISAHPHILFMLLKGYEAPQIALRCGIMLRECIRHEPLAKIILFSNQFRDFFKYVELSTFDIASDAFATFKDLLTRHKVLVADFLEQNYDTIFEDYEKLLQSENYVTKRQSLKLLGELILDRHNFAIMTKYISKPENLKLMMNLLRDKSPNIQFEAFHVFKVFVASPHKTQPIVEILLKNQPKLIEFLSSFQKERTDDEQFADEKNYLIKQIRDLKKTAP

[8] = biological target: CALN1, G9a-methylated (human) (UniProt Q9BXU9)
[9] = biological target: CD79A, G9a-methylated (human) (UniProt P11912)
[10] = biological target: CDK10, G9a-methylated (human) (UniProt Q15131)
[11] = biological target: CLDN15, G9a-methylated (human) (UniProt P56746)
Chain of CLDN15, G9a-methylated (human) (P56746 whole entry): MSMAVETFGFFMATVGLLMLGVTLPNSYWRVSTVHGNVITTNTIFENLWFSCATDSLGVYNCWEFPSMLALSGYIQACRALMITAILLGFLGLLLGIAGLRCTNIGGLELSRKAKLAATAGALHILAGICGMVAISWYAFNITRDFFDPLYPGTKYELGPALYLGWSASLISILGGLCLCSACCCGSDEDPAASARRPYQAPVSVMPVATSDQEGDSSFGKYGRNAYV

[12] = biological target: CSF3, G9a-methylated (human) (UniProt P09919)
[13] = biological target: CTSZ, G9a-methylated (human) (UniProt Q9UBR2)
Chain of CTSZ, G9a-methylated (human) (Q9UBR2 24-303 limits assumed): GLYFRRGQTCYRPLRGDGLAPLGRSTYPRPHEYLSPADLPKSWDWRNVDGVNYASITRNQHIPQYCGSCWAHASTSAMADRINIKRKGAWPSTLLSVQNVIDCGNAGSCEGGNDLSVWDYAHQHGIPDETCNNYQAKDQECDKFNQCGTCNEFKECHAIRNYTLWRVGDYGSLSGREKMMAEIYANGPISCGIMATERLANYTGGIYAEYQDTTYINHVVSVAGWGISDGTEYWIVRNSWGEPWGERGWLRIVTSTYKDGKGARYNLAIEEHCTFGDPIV

[14] = biological target: CTXN1, G9a-methylated (human) (UniProt P60606)
[15] = biological target: DIRAS1, G9a-methylated (human) (UniProt O95057)
Chain of DIRAS1, G9a-methylated (human) (O95057 whole entry): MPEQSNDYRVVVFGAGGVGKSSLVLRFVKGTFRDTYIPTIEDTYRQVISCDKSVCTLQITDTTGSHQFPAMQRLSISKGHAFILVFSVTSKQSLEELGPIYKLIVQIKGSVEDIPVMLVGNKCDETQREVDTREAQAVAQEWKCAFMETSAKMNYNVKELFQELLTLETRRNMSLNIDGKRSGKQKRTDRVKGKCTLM

[16] = biological target: FTH1 (hit 104), G9a-methylated (human) (UniProt P02794)
Chain of FTH1 (hit 104), G9a-methylated (human) (P02794 whole entry): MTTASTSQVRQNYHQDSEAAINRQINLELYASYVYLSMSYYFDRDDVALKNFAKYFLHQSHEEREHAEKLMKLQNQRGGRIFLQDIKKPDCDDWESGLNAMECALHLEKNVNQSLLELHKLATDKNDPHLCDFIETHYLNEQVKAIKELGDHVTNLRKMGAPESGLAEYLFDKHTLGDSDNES

[17] = biological target: GAL, G9a-methylated (human) (UniProt P22466)
Chain of GAL, G9a-methylated (human) (P22466 20-123 limits assumed): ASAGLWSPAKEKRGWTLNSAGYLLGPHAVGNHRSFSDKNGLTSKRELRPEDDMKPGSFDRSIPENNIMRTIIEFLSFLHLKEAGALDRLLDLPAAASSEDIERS

[18] = biological target: GFOD1, G9a-methylated (human) (UniProt Q9NXC2)
Chain of GFOD1, G9a-methylated (human) (Q9NXC2 22-390 limits assumed): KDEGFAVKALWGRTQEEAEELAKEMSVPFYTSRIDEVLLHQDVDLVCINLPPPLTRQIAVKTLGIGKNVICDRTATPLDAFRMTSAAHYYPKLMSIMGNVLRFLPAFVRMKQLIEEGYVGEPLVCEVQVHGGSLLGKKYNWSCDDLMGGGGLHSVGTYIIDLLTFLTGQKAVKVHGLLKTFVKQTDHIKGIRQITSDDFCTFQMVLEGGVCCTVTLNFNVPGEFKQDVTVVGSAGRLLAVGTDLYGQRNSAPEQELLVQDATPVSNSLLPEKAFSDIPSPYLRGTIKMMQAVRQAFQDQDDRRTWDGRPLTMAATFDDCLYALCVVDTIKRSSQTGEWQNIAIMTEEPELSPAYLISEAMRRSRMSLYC

[19] = biological target: GGPS1, G9a-methylated (human) (UniProt O95749)
Chain of GGPS1, G9a-methylated (human) (O95749 whole entry): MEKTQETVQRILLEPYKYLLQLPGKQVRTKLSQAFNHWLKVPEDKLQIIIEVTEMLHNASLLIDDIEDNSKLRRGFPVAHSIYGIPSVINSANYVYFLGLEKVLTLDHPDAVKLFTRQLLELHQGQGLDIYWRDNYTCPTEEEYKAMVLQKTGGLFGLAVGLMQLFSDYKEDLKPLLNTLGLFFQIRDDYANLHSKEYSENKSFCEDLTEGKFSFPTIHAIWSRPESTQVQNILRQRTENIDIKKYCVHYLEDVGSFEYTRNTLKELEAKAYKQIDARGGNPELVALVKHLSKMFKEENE

[20] = biological target: GPX5, G9a-methylated (human) (UniProt O75715)
[21] = biological target: KRR1, G9a-methylated (human) (UniProt Q13601)
Chain of KRR1, G9a-methylated (human) (Q13601 whole entry): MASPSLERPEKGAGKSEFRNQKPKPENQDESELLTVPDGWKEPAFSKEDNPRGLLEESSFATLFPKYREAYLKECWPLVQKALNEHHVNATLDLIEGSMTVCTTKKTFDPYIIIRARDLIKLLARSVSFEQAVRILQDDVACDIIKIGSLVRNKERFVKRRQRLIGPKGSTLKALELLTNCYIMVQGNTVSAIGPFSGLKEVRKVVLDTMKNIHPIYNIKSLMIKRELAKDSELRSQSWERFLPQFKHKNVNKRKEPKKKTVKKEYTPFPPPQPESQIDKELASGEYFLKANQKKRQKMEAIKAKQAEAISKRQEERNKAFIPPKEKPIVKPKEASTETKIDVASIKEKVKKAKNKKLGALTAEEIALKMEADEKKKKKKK

[22] = biological target: LPAL2, G9a-methylated (human) (UniProt Q16609)
Chain of LPAL2, G9a-methylated (human) (Q16609 22-132 limits assumed): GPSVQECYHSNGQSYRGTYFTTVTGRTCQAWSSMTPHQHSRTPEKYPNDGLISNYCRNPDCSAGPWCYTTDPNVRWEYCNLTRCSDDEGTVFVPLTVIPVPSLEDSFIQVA

[23] = biological target: LTC4S, G9a-methylated (human) (UniProt Q16873)
Chain of LTC4S, G9a-methylated (human) (Q16873 whole entry): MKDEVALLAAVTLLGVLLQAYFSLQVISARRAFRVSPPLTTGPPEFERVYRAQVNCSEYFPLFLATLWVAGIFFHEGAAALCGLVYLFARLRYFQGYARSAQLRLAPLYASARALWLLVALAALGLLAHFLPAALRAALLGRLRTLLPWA

[24] = biological target: MAGEH1, G9a-methylated (human) (UniProt Q9H213)
Chain of MAGEH1, G9a-methylated (human) (Q9H213 whole entry): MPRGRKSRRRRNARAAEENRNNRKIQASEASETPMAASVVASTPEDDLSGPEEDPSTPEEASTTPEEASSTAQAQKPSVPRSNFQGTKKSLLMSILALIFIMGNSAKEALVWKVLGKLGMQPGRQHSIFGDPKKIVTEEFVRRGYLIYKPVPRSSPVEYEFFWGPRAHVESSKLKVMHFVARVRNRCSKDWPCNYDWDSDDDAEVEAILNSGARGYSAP

[25] = biological target: MOBKL3, G9a-methylated (human) (UniProt Q9Y3A3)
[26] = biological target: NME1, G9a-methylated (human) (UniProt P15531)
[27] = biological target: PAEP, G9a-methylated (human) (UniProt P09466)
Chain of PAEP, G9a-methylated (human) (P09466 19-180 limits assumed): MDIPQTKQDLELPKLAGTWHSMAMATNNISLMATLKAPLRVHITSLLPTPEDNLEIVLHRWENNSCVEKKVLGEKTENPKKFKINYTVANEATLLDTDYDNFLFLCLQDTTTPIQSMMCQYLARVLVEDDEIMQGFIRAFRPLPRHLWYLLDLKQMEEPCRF

[28] = biological target: PPIL5, G9a-methylated (human) (UniProt Q96L50)
[29] = biological target: PSMA8, G9a-methylated (human) (UniProt Q8TAA3)
[30] = biological target: RAB7B, G9a-methylated (human) (UniProt Q96AH8)
[31] = biological target: RASSF4, G9a-methylated (human) (UniProt Q9H2L5)
Chain of RASSF4, G9a-methylated (human) (Q9H2L5 whole entry): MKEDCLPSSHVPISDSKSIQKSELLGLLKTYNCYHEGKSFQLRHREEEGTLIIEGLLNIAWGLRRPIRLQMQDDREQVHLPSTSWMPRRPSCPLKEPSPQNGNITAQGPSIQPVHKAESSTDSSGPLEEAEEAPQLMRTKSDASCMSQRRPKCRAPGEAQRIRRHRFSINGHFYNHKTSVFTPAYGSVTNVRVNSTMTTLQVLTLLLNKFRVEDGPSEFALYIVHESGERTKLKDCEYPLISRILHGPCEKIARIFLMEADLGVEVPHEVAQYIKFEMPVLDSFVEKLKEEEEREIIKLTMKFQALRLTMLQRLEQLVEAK

[32] = biological target: RDH11, G9a-methylated (human) (UniProt Q8TC12)
[33] = biological target: RHBDD1, G9a-methylated (human) (UniProt Q8TEB9)
Chain of RHBDD1, G9a-methylated (human) (Q8TEB9 whole entry): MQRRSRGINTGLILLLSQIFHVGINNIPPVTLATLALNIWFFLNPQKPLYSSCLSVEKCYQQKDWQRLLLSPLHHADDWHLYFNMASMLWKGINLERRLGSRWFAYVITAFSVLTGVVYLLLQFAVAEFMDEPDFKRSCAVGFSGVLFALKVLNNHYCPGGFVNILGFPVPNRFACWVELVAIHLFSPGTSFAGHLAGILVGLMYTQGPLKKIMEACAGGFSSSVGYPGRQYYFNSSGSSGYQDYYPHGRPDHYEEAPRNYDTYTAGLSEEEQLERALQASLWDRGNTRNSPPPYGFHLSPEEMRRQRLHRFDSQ

[34] = biological target: SAR1B, G9a-methylated (human) (UniProt Q9Y6B6)
Chain of SAR1B, G9a-methylated (human) (Q9Y6B6 whole entry): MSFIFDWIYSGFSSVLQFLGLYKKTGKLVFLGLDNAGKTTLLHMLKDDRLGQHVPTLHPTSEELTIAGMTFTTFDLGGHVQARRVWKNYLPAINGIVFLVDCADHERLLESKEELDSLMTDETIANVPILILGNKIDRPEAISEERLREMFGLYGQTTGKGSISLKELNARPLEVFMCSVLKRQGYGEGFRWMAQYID

[35] = biological target: SCGB1A1, G9a-methylated (human) (UniProt P11684)
[36] = biological target: SH3YL1 (clone MGC:12275), G9a-methylated (human) (UniProt Q96HL8)
[37] = biological target: TGDS, G9a-methylated (human) (UniProt O95455)
Chain of TGDS, G9a-methylated (human) (O95455 whole entry): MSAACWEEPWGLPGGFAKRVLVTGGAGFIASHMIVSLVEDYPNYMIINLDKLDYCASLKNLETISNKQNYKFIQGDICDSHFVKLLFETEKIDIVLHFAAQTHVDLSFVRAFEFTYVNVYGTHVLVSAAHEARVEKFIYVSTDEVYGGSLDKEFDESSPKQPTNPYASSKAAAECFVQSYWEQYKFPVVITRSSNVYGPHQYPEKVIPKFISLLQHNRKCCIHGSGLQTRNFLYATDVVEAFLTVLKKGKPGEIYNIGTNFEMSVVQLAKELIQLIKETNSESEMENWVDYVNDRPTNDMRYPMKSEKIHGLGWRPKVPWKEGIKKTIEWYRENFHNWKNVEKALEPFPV

[38] = biological target: UBE2D2, G9a-methylated (human) (UniProt P62837)
Chain of UBE2D2, G9a-methylated (human) (P62837 whole entry): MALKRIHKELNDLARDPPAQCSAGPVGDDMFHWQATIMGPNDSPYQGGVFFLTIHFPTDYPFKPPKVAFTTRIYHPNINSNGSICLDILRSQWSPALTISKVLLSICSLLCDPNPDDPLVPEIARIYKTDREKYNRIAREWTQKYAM

[39] = biological target: VPS29, G9a-methylated (human) (UniProt Q9UBQ0)
[40] = biological target: ZNF695, G9a-methylated (human) (UniProt Q8IW36)

Q: How did the G9a-GST [1] turn out when 3× Flag-3×MBT (designed binder) was run?
A: 12.1

Q: What about the G9a-GST [2] of the same substance?
A: 25.5

Q: What about the G9a-GST [3] of the same substance?
A: 14.9

Q: And the G9a-GST [4]?
A: 12.5

Q: And the G9a-GST [5]?
A: 14.3

Q: What about the G9a-GST [6] of the same substance?
A: 12.1

Q: And the G9a-GST [7]?
A: 14.5

Q: What about the G9a-GST [8] of the same substance?
A: 18.6

Q: And the G9a-GST [9]?
A: 14.5

Q: And the G9a-GST [10]?
A: 13.2

Q: What about the G9a-GST [11] of the same substance?
A: 25.3

Q: What about the G9a-GST [12] of the same substance?
A: 17.7

Q: What about the G9a-GST [13] of the same substance?
A: 12.3

Q: And the G9a-GST [14]?
A: 18.7

Q: What about the G9a-GST [15] of the same substance?
A: 28.2

Q: And the G9a-GST [16]?
A: 31.2

Q: What about the G9a-GST [17] of the same substance?
A: 13.2

Q: What about the G9a-GST [18] of the same substance?
A: 16

Q: And the G9a-GST [19]?
A: 12.8

Q: And the G9a-GST [20]?
A: 25.6

Q: What about the G9a-GST [21] of the same substance?
A: 29.3

Q: What about the G9a-GST [22] of the same substance?
A: 33

Q: What about the G9a-GST [23] of the same substance?
A: 12.9

Q: What about the G9a-GST [24] of the same substance?
A: 42.9

Q: And the G9a-GST [25]?
A: 14

Q: What about the G9a-GST [26] of the same substance?
A: 14.1

Q: And the G9a-GST [27]?
A: 16.5

Q: What about the G9a-GST [28] of the same substance?
A: 12.4

Q: What about the G9a-GST [29] of the same substance?
A: 13.9

Q: What about the G9a-GST [30] of the same substance?
A: 13

Q: And the G9a-GST [31]?
A: 14.6

Q: And the G9a-GST [32]?
A: 26.5

Q: And the G9a-GST [33]?
A: 12.4

Q: What about the G9a-GST [34] of the same substance?
A: 19.3

Q: And the G9a-GST [35]?
A: 18.4

Q: What about the G9a-GST [36] of the same substance?
A: 12.7

Q: And the G9a-GST [37]?
A: 12.4

Q: What about the G9a-GST [38] of the same substance?
A: 37.6

Q: What about the G9a-GST [39] of the same substance?
A: 15.5

Q: And the G9a-GST [40]?
A: 18.8
